Starred links: 1 amine or outer side, 2 acyl side, 3 side chain; linkers in the order of their positions; H or OH if unused. Non-standard residues stand in square brackets, D forms with d. No end group written: not given here. βAsp = O=C(O)[C@H](CC(=O)[*:2])N[*:1]

Assay [1] deals with AG1-1 specific monoclonal antibody F49. In words: competitive ELISA, biotin-GRVRVD-β-SAY on streptavidin plates, free peptide as competitor. In general terms: An ELISA detects its analyte on a solid surface through an enzyme-linked reagent.
The target in assay [2] is polyclonal AG1-1 specific rabbit antiserum. The experiment in a line: competitive ELISA, BSA-BS^3-AG1-1 coated plates, free peptide as competitor.

B1: AG1-1 peptide, isomerized (βL) form (peptide)
peptide: GRVRV[βAsp]SAY
With B1, the fold higher reactivity compared with the αL form in assay [1] was above 500 fold.

B2: AG1-1 peptide … heated at 90° C. for 4 hours (peptide)
peptide: GRVRVNSAY
modifications: also: heated mixture: Asn6 partly converted to βL, αD and βD forms
On to B2, for which the fold higher reactivity compared with the non-boiled form in assay [2] came to 7 fold.

The record behind these values is patent publication US20050054014A1.
